Substitutions are numbered along the chain they refer to. Numbers in names are those of the source.

The target of data set [1] is T1, YbdB (Escherichia coli, UniProt P0A8Y8).
T1 sequence (P0A8Y8 1-137): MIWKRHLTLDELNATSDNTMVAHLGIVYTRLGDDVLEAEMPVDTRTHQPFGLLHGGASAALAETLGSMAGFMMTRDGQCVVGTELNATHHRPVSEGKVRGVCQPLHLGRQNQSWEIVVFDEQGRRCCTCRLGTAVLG
The experiment in a line: steady-state inhibition of thioester hydrolysis, DTNB coupled assay. In kind it is biochemical.

Data set [2] deals with T2, YdiI (Escherichia coli, UniProt P77781).
T2 sequence (P77781 1-136): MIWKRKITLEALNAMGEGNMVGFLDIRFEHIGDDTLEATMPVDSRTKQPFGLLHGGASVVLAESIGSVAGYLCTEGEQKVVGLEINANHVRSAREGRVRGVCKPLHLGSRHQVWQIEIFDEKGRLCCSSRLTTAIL
The data set is described as above. The data set is classed as biochemical.

In data set [3] the target is T2, YdiI. Nature of the data set: steady-state inhibition of 4-hydroxybenzoyl-CoA hydrolysis, direct […] nm assay. The data set is classed as biochemical.
Data set [4] has as its target T1, YbdB. Described as above. In kind it is biochemical.
Data set [5] addresses T3, YbdB (Escherichia coli, UniProt P0A8Y8, M68V).
T3 sequence (P0A8Y8 1-137 M68V): T1 sequence (P0A8Y8 1-137)
The experiment in a line: steady-state kinetics, DTNB coupled assay at […] nm. The data set is classed as biochemical. As to conditions: pH 7.5, 25 °C; 50 mM K+HEPES, 1 mM DTNB.

In data set [6] the target is T2, YdiI. Nature of the data set: steady-state kinetics, DTNB coupled assay at […] nm. The data set is classed as biochemical. The conditions noted are these: pH 7.5, 25 °C; 50 mM K+HEPES, 1 mM DTNB.
Substrate in the data set “purified protein”: CC(C)(COP(=O)(O)OP(=O)(O)OC[C@H]1O[C@@H](n2cnc3c(N)ncnc32)[C@H](O)[C@@H]1OP(=O)(O)O)[C@@H](O)C(=O)NCCC(=O)NCCSC(=O)c1ccccc1
Nature of the data set: purified protein. As to conditions: pH 7.5, 25 °C, 50 mM K+HEPES, 1 mM DTNB.

`CC(C)(COP(=O)(O)OP(=O)(O)OC[C@H]1O[C@@H](n2cnc3c(N)ncnc32)[C@H](O)[C@@H]1OP(=O)(O)O)[C@@H](O)C(=O)NCCC(=O)NCCSCC(=O)c1ccccc1` [phenacyl-CoA]: the values for the inhibitory constant (Ki) on YbdB [1] and on YdiI [2] were 65 ± 6 µM and 7.8 ± 0.4 µM, respectively.

As for `CCCCCCCCCC(=O)CSCCNC(=O)CCNC(=O)[C@H](O)C(C)(C)COP(=O)(O)OP(=O)(O)OC[C@H]1O[C@@H](n2cnc3c(N)ncnc32)[C@H](O)[C@@H]1OP(=O)(O)O` [compound 6, UDO-CoA], affinity at YdiI [2] was put at a Ki of 12.2 ± 0.5 µM. Take `CC(C)(COP(=O)(O)OP(=O)(O)OC[C@H]1O[C@@H](n2cnc3c(N)ncnc32)[C@H](O)[C@@H]1OP(=O)(O)O)[C@@H](O)C(=O)NCCC(=O)NCCS` [compound 4, CoA]: the results for the Ki on YdiI [3] and on YbdB [4] were 16 ± 1 µM and 210 ± 10 µM, respectively.

With `CC(C)(COP(=O)(O)OP(=O)(O)OC[C@H]1O[C@@H](n2cnc3c(N)ncnc32)[C@H](O)[C@@H]1OP(=O)(O)O)[C@@H](O)C(=O)NCCC(=O)NCCSC(=O)c1ccccc1` [compound 3, benzoyl-CoA], the Michaelis constant (Km) – broadly, the substrate concentration at which the rate is half of its maximum – is 24 ± 2 µM at YbdB [5] and 25 ± 3 µM at YdiI [6]. With `CC(C)(COP(=O)(O)OP(=O)(O)OC[C@H]1O[C@@H](n2cnc3c(N)ncnc32)[C@H](O)[C@@H]1OP(=O)(O)O)[C@@H](O)C(=O)NCCC(=O)NCCSCC(=O)c1ccc(O)cc1O` [compound 5, 2,4-DHP-CoA], the Ki – broadly, a dissociation constant, usually derived from enzyme kinetics or from competition with a known ligand – is 5.9 ± 6 µM on YbdB [1] and 2.5 ± 0.2 µM at YdiI [2].

B1: YbdB (Escherichia coli K-12) (protein)
chain: T1 sequence (P0A8Y8 1-137)
For the molecule B1, in the data set “purified protein”, the Km was 12 ± 1 µM.

B2: YdiI (Escherichia coli K-12; S64A) (protein)
chain: T2 sequence (P77781 1-136) with S64A
For the molecule B2, in “purified protein”, the Michaelis-Menten constant (Km) came out at 11.9 ± 0.9 µM.

B3: YdiI (Escherichia coli K-12; S109A) (protein)
chain: T2 sequence (P77781 1-136) with S109A
With B3, the Km in the data set “purified protein” was determined as 14.2 ± 0.2 µM.

B4: YdiI (Escherichia coli K-12; H89A) (protein)
chain: T2 sequence (P77781 1-136) with H89A
Consider B4, for which, in “purified protein”, the Km worked out at 180 ± 10 µM.

B5: YdiI (Escherichia coli K-12; E63D) (protein)
chain: T2 sequence (P77781 1-136) with E63D
Take B5: the Michaelis-Menten constant (Km) in “purified protein” stood at 120 ± 10 µM.

B6: YdiI (Escherichia coli K-12; Q48N) (protein)
chain: T2 sequence (P77781 1-136) with Q48N
In the case of B6, the Km in the data set “purified protein” stood at 12.6 ± 0.8 µM.

B7: YdiI (Escherichia coli K-12; R91A) (protein)
chain: T2 sequence (P77781 1-136) with R91A
Consider B7, for which the Km in “purified protein” came out at 23 ± 3 µM.

B8: YdiI (Escherichia coli K-12; H54F) (protein)
chain: T2 sequence (P77781 1-136) with H54F
B8: the Km in “purified protein” was determined as 16.8 ± 0.9 µM.

B9: YdiI (Escherichia coli K-12; H54A) (protein)
chain: T2 sequence (P77781 1-136) with H54A
On to B9, for which, in “purified protein”, the Km is 100 ± 8 µM.

B10: YdiI (Escherichia coli K-12; S67A) (protein)
chain: T2 sequence (P77781 1-136) with S67A
Turning to B10, in the data set “purified protein”, the Km was 12.6 ± 0.2 µM.
